Experimental findings from patent US20250376533A1 (FUTUREGEN BIOPHARMACEUTICAL BEIJING, published 2025) are described below.

The chains are these.
B1: anti-PD-L1/CD40 bispecific antibody 1653 (bispecific antibody, human IgG2, kappa)
light: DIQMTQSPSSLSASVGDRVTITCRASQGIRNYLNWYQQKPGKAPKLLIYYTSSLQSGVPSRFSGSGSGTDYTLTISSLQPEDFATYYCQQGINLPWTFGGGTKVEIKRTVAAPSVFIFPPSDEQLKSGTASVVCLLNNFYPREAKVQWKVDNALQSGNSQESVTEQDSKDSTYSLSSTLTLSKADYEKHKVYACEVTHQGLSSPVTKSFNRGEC
heavy: EVQLVESGGGLVQPGGSLRLSCAASGFTFSDYYMSWVRQAPGKGLEWVGFIRNKANAYTTEYAASVKGRFTISRDNSKSTLYLQMNSLRAEDTAVYYCARYGGLKKGWYFDLWGQGTLVTVSSASTKGPSVFPLAPCSRSTSESTAALGCLVKDYFPEPVTVSWNSGALTSGVHTFPAVLQSSGLYSLSSVVTVPSSNFGTQTYTCNVDHKPSNTKVDKTVERKCCVECPPCPAPPVAGPSVFLFPPKPKDTLMISRTPEVTCVVVDVSHEDPEVQFNWYVDGVEVHNAKTKPREEQFNSTFRVVSVLTVVHQDWLNGKEYKCKVSNKGLPAPIEKTISKTKGQPREPQVYTLPPSREEMTKNQVSLTCLVKGFYPSDIAVEWESNGQPENNYKTTPPMLDSDGSFFLYSKLTVDKSRWQQGNVFSCSVMHEALHNHYTQKSLSLSPGGGGGSGGGGSGGGGSGEVQLVESGGGLVQPGGSLRLSCAASGFTFDYYTQCWFRQAPGKEREWVSCISSSEGSTYYADSVKGRFTISRDNSKNTVYLQMNSLKTEDTAVYYCAARKGGPLTIENFFDYWGQGTQVTVSS
notes: First polypeptide chain = anti-CD40 light chain; second polypeptide chain = anti-CD40 heavy chain with the 1541 VHH joined to its C-terminus by a G4S linker
B2: anti-PD-L1/CD40 bispecific antibody 1607 (bispecific antibody, human IgG2, kappa)
light: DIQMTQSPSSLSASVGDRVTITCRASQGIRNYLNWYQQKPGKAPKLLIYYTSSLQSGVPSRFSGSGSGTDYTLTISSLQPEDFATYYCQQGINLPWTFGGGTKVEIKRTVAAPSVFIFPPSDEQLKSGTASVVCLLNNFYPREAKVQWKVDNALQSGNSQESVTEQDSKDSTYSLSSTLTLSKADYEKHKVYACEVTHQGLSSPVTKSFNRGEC
heavy: B1 heavy with A57G
notes: as for B1
B3: anti-PD-L1/CD40 bispecific antibody 1606 (bispecific antibody, human IgG2, kappa)
light: DIQMTQSPSSLSASVGDRVTITCRASQDIRNYLNWYQQKPGKAPKLLIYYTSRRDSGVPSRFSGSGSGTDYTLTISSLQPEDFATYFCQQGKTLPWTFGGGTKVEIKRTVAAPSVFIFPPSDEQLKSGTASVVCLLNNFYPREAKVQWKVDNALQSGNSQESVTEQDSKDSTYSLSSTLTLSKADYEKHKVYACEVTHQGLSSPVTKSFNRGEC
heavy: B1 heavy with A57G, S79N, K105R, K106Q, L112V
notes: as for B1
B4: anti-PD-L1/CD40 bispecific antibody 1608 (bispecific antibody, human IgG2, kappa)
light: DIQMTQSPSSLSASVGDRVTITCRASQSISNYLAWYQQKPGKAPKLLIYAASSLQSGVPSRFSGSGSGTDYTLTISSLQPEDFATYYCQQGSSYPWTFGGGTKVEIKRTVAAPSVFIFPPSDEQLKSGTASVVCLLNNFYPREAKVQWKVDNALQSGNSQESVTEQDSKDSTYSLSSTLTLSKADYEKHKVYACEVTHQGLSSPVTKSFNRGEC
heavy: B1 heavy with D31N, A57G, S87R, K106V
notes: as for B1
B5: anti-PD-L1/CD40 bispecific antibody 1609 (bispecific antibody, human IgG2, kappa)
light: B3 light with D28T, R30S, N31S, R53T, R54L, D55Q, F87Y, K92N, T93A, L94Y
heavy: B1 heavy with D31N, A57G, K106I
notes: as for B1
B6: anti-PD-L1/CD40 bispecific antibody 1605 (bispecific antibody, human IgG2, kappa)
light: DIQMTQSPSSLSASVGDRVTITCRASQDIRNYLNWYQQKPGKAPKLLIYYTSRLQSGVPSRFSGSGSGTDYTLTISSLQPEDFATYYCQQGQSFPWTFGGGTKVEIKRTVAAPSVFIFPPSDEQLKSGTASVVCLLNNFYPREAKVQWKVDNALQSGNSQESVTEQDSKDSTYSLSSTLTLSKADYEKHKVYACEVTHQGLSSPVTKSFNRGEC
heavy: B1 heavy with D31N, G49A, L104I, K105R, K106V
notes: as for B1

Substitutions are numbered along the chain they refer to. Names may count otherwise.

T2 sequence (P25942 21-193 limits assumed): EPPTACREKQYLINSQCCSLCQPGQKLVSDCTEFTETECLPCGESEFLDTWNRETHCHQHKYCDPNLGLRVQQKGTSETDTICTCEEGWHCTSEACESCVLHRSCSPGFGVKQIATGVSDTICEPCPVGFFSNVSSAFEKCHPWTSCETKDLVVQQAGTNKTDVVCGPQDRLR
T1 sequence (P25942 21-277 limits assumed): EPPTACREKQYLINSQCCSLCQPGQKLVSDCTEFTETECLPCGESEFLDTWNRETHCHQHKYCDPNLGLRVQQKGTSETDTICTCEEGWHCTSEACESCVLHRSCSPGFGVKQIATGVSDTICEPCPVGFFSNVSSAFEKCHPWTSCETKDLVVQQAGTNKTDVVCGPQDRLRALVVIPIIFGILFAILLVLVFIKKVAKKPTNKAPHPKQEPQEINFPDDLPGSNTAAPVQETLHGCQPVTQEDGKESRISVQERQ
T6 sequence (G7PSE7 entry or part of it): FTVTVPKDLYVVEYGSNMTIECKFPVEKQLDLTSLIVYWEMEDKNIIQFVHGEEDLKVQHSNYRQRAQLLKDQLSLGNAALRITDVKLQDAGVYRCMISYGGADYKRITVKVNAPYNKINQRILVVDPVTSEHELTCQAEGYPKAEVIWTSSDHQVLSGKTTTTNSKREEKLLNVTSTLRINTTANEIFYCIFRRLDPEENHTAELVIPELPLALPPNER
T7 sequence (D4AE25 entry or part of it limits assumed): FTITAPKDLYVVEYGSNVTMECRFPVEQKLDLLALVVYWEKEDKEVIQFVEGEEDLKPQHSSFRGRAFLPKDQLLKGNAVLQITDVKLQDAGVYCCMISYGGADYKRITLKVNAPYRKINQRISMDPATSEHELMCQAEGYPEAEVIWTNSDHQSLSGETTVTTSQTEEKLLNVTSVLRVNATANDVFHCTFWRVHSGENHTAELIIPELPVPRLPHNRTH
T8 sequence (Q9EP73 19-239 limits assumed): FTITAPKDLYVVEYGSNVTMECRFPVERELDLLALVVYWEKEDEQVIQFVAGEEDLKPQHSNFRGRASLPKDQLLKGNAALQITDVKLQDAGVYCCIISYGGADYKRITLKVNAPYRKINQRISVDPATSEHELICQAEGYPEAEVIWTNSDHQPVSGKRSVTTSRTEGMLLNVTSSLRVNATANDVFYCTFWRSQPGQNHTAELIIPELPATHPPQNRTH

The first assay concerns the target T1, CD40 on HEK-Blue CD40L cells (InvivoGen) (UniProt P25942 21-277, limits assumed). In words: cell-based or functional assay.
For the molecule B1, the “CD40 agonistic activity (A)/(B) Ratio, EC50 without over with CHO/PD-L1” value was 2.2; the “CD40 agonistic activity EC50 (nM) with CHO/PD-L1 (B), SEAP reporter” value is 0.018 nM; the “CD40 agonistic activity EC50 (nM) without CHO/PD-L1 (A), SEAP reporter” value was 0.039 nM.
Consider B2, for which the “CD40 agonistic activity (A)/(B) Ratio, EC50 without over with CHO/PD-L1” value was 2.4; the “CD40 agonistic activity EC50 (nM) with CHO/PD-L1 (B), SEAP reporter” value amounted to 0.012 nM; the “CD40 agonistic activity EC50 (nM) without CHO/PD-L1 (A), SEAP reporter” value worked out at 0.029 nM.
Take B3: the “CD40 agonistic activity (A)/(B) Ratio, EC50 without over with CHO/PD-L1” value came out at 3.7; the “CD40 agonistic activity EC50 (nM) with CHO/PD-L1 (B), SEAP reporter” value was found to be 0.017 nM; the “CD40 agonistic activity EC50 (nM) without CHO/PD-L1 (A), SEAP reporter” value is 0.061 nM.
On the same counts, the results for B4 are 20.2, 0.02 nM and 0.396 nM.
The matching figures for B5: 28, 0.02 nM and 0.556 nM.
The matching figures for B6: 3.2, 0.024 nM and 0.075 nM.

For the next assay, the target named is T1, CD40 on HEK-Blue CD40L cells (InvivoGen). The experiment in a line: flow cytometry, competition with 10 nM Biotin-CD40L on HEK-Blue CD40L cells. Here is the method:
The blocking effect of bispecific antibodies on CD40/CD40L binding was tested using HEK-Blue CD40L cells that highly express CD40. The specific method is as follows: HEK-Blue CD40L cells were collected and resuspended in pre-cooled PBS containing 2% FBS at a density of 1E7 cells/mL, and then added to a 96-well plate at 50 μL per well, i.e., 5E5 cells/well. Biotin-CD40L (FutureGen Biopharmaceutical) and serially diluted bispecific antibody were then added at 50 μL per well, with a final concentration of Biotin-CD40L of 10 nM, and the plate was incubated at 4° C. for 1 hour. The wells were washed twice with pre-cooled PBS. Streptavidin-PE (BioLegend, Cat. No. 405203) diluted in pre-cooled PBS containing 2% FBS was added, and the plate was incubated at 4° C. for 30 minutes. The wells were washed twice with pre-cooled PBS. The cells were then resuspended in pre-cooled PBS containing 2% FBS and assayed by flow cytometry.
In the case of B1, the IC50 was found to be 0.807 nM.
On the same count and under the same terms, as for B2, the figure is 0.703 nM; as for B3, 0.78 nM; as for B4, 4.54 nM.
Same read-out and setting: for B5 the value was 3.16 nM.
Same read-out and setting: as for B6, the figure is 1.09 nM.

A further assay has as its target T2, human CD40 antigen (ACROBiosystems) (human, UniProt P25942 21-193).
T2 construct: Bought antigen coated on ELISA plates; construct not described
The experiment in a line: ELISA, coated antigen. As for the experimental part:
(§1) The binding ability of bispecific antibody to human PD-L1 and human CD40, as well as the species specificity, was detected using an enzyme-linked immunosorbent assay (ELISA). The specific method is as follows: human PD-L1, cynomolgus PD-L1, rat PD-L1, mouse PD-L1, human CD40, cynomolgus CD40, rat CD40, and mouse CD40 antigens (all purchased from ACROBiosystems) were coated with 1 μg/mL carbonate buffer (pH=9.6) in an ELISA plate at 100 μL per well, followed by incubation at 4° C. overnight. The wells were washed 5 times with PBST. 300 μL/well of PBST containing 1% BSA was added to block the wells, and the plate was incubated at room temperature for 1 hour. The wells were washed 5 times with PBST. […] The wells were washed 5 times with PBST. […] The wells were washed 5 times with PBST. Colorimetric substrate TMB was added at 100 μL per well and allowed to develop color at room temperature for 10 minutes, followed by the addition of 1 M sulfuric acid to terminate the reaction. The OD_{450 nm} was read on a microplate reader to analyze the results, and the EC₅₀ was calculated using a 4-parameter fit binding curve.
(§2) These bispecific antibodies are not able to bind to rat PD-L1 and CD40 or mouse PD-L1 and CD40.
As for B1, the EC50 stood at 0.02 nM.
Molecule B2 yielded a concentration for a half-maximal effect (EC50) of 0.02 nM.
B3 came in with an EC50 of 0.024 nM.
Same read-out and setting: for B4 the value was 0.022 nM.
On the same count and under the same terms, for B5 the value was 0.021 nM; for B6, 0.024 nM.

In the next assay the target is T3, mouse CD40 antigen (ACROBiosystems) (mouse, UniProt P27512 24-193, limits assumed).
T3 construct: Bought antigen coated on ELISA plates; construct not described
T3 sequence (P27512 24-193 limits assumed): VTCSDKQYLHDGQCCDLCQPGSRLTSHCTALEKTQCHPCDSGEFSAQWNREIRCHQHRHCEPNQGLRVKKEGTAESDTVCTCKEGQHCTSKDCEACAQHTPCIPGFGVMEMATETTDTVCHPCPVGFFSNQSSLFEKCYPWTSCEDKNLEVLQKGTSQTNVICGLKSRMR
In words: ELISA, coated antigen. Here is the method:
as §1, §2
As for B1, the binding result is given as “no binding”.
As to B2, the binding result is given as “no binding”.
On the same count and under the same terms, for B3 the value was “no binding”; for B4, “no binding”; for B5, “no binding”.
Same read-out and setting: for B6 the value was “no binding”.

In a further assay the target is T4, human PD-L1 antigen (ACROBiosystems) (human, UniProt Q9NZQ7 19-238).
T4 construct: Bought antigen coated on ELISA plates
T4 sequence (Q9NZQ7 19-238 limits assumed): as the sequence (G7PSE7 entry or part of it) above, with T33A, S34A, N62S, Q68R, R82Q, L173F, A185T, I192T, L215H counted along it
In words: ELISA, coated antigen. Here is the method: as §1, §2
In the case of B1, the response was half-maximal at 0.039 nM (EC50).
Same read-out and setting: as for B2, the figure is 0.036 nM; as for B3, 0.039 nM; as for B4, 0.038 nM.
Same read-out and setting: as for B5, the figure is 0.034 nM; as for B6, 0.05 nM.

In the next assay the target is T5, cynomolgus CD40 antigen (ACROBiosystems) (cynomolgus, UniProt G7PG38 21-193).
T5 construct: Bought antigen coated on ELISA plates; construct not described
In words: ELISA, coated antigen. Here is the method: as §1, §2
For orientation: An ELISA detects its analyte on a solid surface through an enzyme-linked reagent.
B1 came in with an EC50 of 0.018 nM.
On the same count and under the same terms, as for B2, the figure is 0.016 nM; as for B3, 0.02 nM.
Still for that read-out and setting: for B4 the value was 0.02 nM; for B5, 0.019 nM; for B6, 0.02 nM.

Another assay has as its target T6, cynomolgus PD-L1 antigen (ACROBiosystems) (cynomolgus, UniProt G7PSE7 19-238).
T6 construct: Bought antigen coated on ELISA plates; construct not described
In words: ELISA, coated antigen. As for the experimental part:
as §1, §2
Molecule B1 gave an EC50 of 0.021 nM.
The same measure, in the same setting: as for B2, the figure is 0.019 nM; as for B3, 0.022 nM.
The same measure, in the same setting: for B4 the value was 0.019 nM; for B5, 0.016 nM.
With B6, the EC50 is 0.025 nM.

The next assay concerns the target T7, rat PD-L1 antigen (ACROBiosystems) (rat, UniProt D4AE25 19-239).
T7 construct: Bought antigen coated on ELISA plates; construct not described
In words: ELISA, coated antigen. As for the experimental part:
as §1, §2
B1: the binding result is reported as “no binding”.
Turning to B2, the binding result is “no binding”.
On the same count and under the same terms, for B3 the value was “no binding”; for B4, “no binding”; for B5, “no binding”.
Still for that read-out and setting: as for B6, the entry is “no binding”.

A further assay addresses T8, mouse PD-L1 antigen (ACROBiosystems) (mouse, UniProt Q9EP73 19-239).
T8 construct: Bought antigen coated on ELISA plates; construct not described
In words: ELISA, coated antigen. As for the experimental part:
as §1, §2
Consider B1, for which the binding result is on record as “no binding”.
Still for that read-out and setting: as for B2, the entry is “no binding”; as for B3, “no binding”; as for B4, “no binding”.
Still for that read-out and setting: for B5 the value was “no binding”; for B6, “no binding”.

The target of the next assay is T9, rat CD40 antigen (ACROBiosystems) (rat, UniProt A6JXD6 20-193).
T9 construct: Bought antigen coated on ELISA plates; construct not described
T9 sequence: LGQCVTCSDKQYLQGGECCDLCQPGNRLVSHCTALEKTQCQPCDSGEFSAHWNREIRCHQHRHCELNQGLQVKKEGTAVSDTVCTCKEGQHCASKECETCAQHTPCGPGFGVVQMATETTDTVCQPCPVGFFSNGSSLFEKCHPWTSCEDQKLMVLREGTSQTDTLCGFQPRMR
In words: ELISA, coated antigen. Here is the method:
as §1, §2
In the case of B1, the binding result is “no binding”.
As to B2, the binding result is given as “no binding”.
On to B3, for which the binding result was “no binding”.
Still for that read-out and setting: as for B4, the entry is “no binding”.
As to B5, the binding result is on record as “no binding”.
The same measure, in the same setting: as for B6, the entry is “no binding”.

A further assay has as its target T2, human CD40 antigen (ACROBiosystems). In words: bridging ELISA: coated human CD40, serially diluted bispecific antibody, detection with biotin-labeled human PD-L1 and streptavidin-HRP, OD450. Here is the method: Antigen human CD40 (purchased from ACROBiosystems) was coated with 1 μg/mL carbonate buffer (pH=9.6) in an ELISA plate at 100 μL per well, followed by incubation at 4° C. overnight. The wells were washed 5 times with PBST. 300 μL/well of PBST containing 1% BSA was added to block the wells, and the plate was incubated at room temperature for 1 hour. The wells were washed 5 times with PBST. […] The wells were washed 5 times with PBST. Biotin-labeled human PD-L1 (FutureGen Biopharmaceutical) diluted with PBST containing 1% BSA was added at 100 μL per well, and the plate was incubated at room temperature for 1 hour. The wells were washed 5 times with PBST. Streptavidin-HRP (BioLegend, Cat. No. 405210) diluted with PBST containing 1% BSA was added at 100 μL per well, and the plate was incubated at room temperature for 30 minutes. Colorimetric substrate TMB was added at 100 μL per well and allowed to develop color at room temperature for 10 minutes, followed by the addition of 1 M sulfuric acid to terminate the reaction. The OD_[…] was read on a microplate reader to analyze the results, and the EC₅₀ was calculated using a 4-parameter fit binding curve.
Regarding B1, the EC50 is 0.039 nM.
The same measure, in the same setting: for B2 the value was 0.032 nM; for B3, 0.04 nM; for B4, 0.029 nM.
Still for that read-out and setting: as for B5, the figure is 0.039 nM; as for B6, 0.038 nM.

In general, IC50 refers to the concentration needed to halve the response being measured. What is called EC50 is the midpoint of the concentration-response curve. A higher EC50 goes with weaker potency.
